In patent US20220144922A1 (Adimab, published 2022):
Positions count from the first letter of the chain named.

B1: ADI-15662 (antibody, V domains shown)
VH: QVQLQESGPGLVKPSETLSLTCTVSGGSVSRGSYYWTWIRQPPGKGLEWIGYIYYSGSTNYNPSLKSRVTISVDTSKNQFSLKLSSVTAADTAVYYCARDIGEDKYGTYYGMDVWGQGTTVTVSS
VL: EIVMTQSPATLSLSPGERATLSCRASQSVSSSLAWYQQKPGQAPRLLIYGASNRATGIPARFSGSGSGTDFTLTISSLEPEDFAVYYCQQRTNWPPVTFGPGTKVEIK
notes: IgG
B2: ADI-15569 (antibody, V domains shown)
VH: EVQLVESGAEVKKPGASVKVSCKASGYTFANYGITWVRQAPGQGLEYMGWISAYNGNTNYAQKFQGRVTMTTDTSTSTAYMELRSLRSDDTAIYYCARDPGVTAAVLLDYWGQGALVTVSS
VL: DIVLTQSPLSLPVTLGQPASISCRSSQSLVFSDGNTYLSWFQQRPGQSPRRLLYKVSNRDSGVPDRFSGSGSGTDFTLTISRVEAEDVGVYYCLQGTPPYTFGQGTKVDIK
notes: IgG
B3: ADI-15655 (antibody, V domains shown)
VH: EVQLVESGGGVVQPGRSLRLSCAASGFTFSSYAMHWVRQAPGKGLEWVAVISYDEGNEYYADSVKGRFTISRANSKNTIYLQMNSLRAEDTAVYYCARDYIHGDYGLDVWGLGTTVTVSS
VL: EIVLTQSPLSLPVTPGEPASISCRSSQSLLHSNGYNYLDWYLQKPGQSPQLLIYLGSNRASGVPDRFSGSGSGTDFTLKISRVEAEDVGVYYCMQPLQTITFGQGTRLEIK
notes: IgG
B4: ADI-15571 (antibody, V domains shown)
VH: QVQLVQSGAEVKKPGASVKVSCKASGYSFTDYYIHWVRQAPGQGLEWIGWINPNSGGTTFAQNFQGRVTMTRDTSISTAFLELSRLKSDDTAVYYCARDVLWLNGFWGLGTLVTVSS
VL: QSVVTQPPSVSAAPGQKVTISCSGSSSNIGNNYVSWYQQFRGTAPKVLIYENNKRTSGIPDRFSGSKSGTSATLGITGLQTGDEADYYCGTWDSSLSTGPYVVFGGGTKLTVL
notes: IgG
B5: ADI-15656 (antibody, V domains shown)
VH: QVQLVQSGAEVKKPGASVKVSCKASGYTFTDYYMHWVRQAPGQGLEWVGWINPNSGSTNYAQKFQGRVTVTRDTSISTAYMDLSRLRSDDTAVYYCASRSWDHDAFDIWGQGTMVTVSS
VL: QSVLTQPPSVSGAPGQRVTISCTGSSSNIGAGYDVHWYQQLPGRAPKLLIFGNSNRPSGVPDRFSGSKSGTSASLAITGLQPEDEADYYCHCYDSRLSVVFGGGTKLTVL
notes: IgG; also called Antibody Number 220
B6: ADI-15565 (antibody, V domains shown)
VH: QVQLVQSGAEVKKPGASVKVSCKASGYTFTNDINWVRQATGQGLEWMGWMNPNNGHTGYAQSFEGRVSMTRNSAINTAYLELSSLRFDDTAIYYCVYNFWSDSSVSWGQGTLVTVSS
VL: QSVVTQPPSVSGAPGQSVAISCTGSSSNIGPGYDVHWYQQLPGAAPKLLIYGDSNRPSGVPDRFSTSKSGTSVSLAITGLQAEDEADYYCQSYDSSLRGYVFGTGTKLTVL
notes: IgG
B7: ADI-15575 (antibody, V domains shown)
VH: QVQLVQSGAEVKKPGASLMVSCSASGYIFNSDINWVRQAPGQGLEWMGWMNPKNGHTGYAQEFEGRVSMTRNSSKTIAYLQLSSLTYEDTAVYYCVYDFWSDDSVKWGRGTLVTVSS
VL: B6 VL with T23S, A44S, S54N, D62E, V73A, Y93F, L108V
notes: IgG
B8: ADI-15591 (antibody, V domains shown)
VH: EVQLLESGGGLVKPGGSLRLSCAASGFTFSSYGMHWVRQAPGKGLEWVSSITAGSSYMDYADSVKGRFTVSRDNGKNSLYLQMNSLRAEDTAVYFCAREDYDSRVYYLKWFDPWGQGTLVTVSS
VL: B6 VL with V4L, S17R, A19T, P31T, A44S, D53N, T66G, V73A, L97R, R98S
notes: IgG
B9: ADI-15564 (antibody, V domains shown)
VH: QVQLVQSGAEVKKPGSSVKVSCKASGDTFNSYSISWVRQAPGQGLEWMGGILPMFGSSDYAQKFQGRLTITADESTRTAYMELNSLTSEDTAIYYCARDNYYVWTGRYPEFDFWGQGTLVTVSS
VL: EIVLTQSPGTLSLSPGDEATLSCRASQSVTSNYLAWYQQRPGQAPRLLISGASRRATAVPDRFSGSGSGTDFTLTISRLEPEDFAVYYCQQYGSTPITFGQGTRLEIK
notes: IgG
B10: ADI-15568 (antibody, V domains shown)
VH: QVQLVESGAEVQKPGASVKISCKASGYKFISYSIHWVRQAPGQGLEWMGVINPGGGLTNYAQKFQDRLTMTRDTSTATVTMELRSLRSDDRAVYFCGREDSYCSGDSCFNSGSGRWVDSWGQGTLVTVSS
VL: DIQVTQSPSSLSASVGDRVTITCRASQSVITYLNWYQQKPGKAPQLLVYAASILQSGVPSSFSGSGSGTDFTLTISSLQPEDFATYYCQQTYSTPHTFGQGTKVDIK
notes: IgG
B11: ADI-15609 (antibody, V domains shown)
VH: EVQLLESGGGVVQPGRSLKLSCAASGFSFTTDVMHWIRQAPGKGLEWVAVISTDGANSYYAESVKGRFTISRDNSKNTLFLQMSSLRAEDTAVYYCASQGYHYVNMADVGVPSFDHWGQGTLVTVSS
VL: ETTLTQSPSSLSASVGDRVTITCRARRSIDNYLNWYQHKPGTAPKLLIYAVSSLPSGVPSRFSGSGSGADFTLTISSLQPEDLATYYCQQSYMTPPTFGQGTKLEIK
notes: IgG
B12: ADI-15602 (antibody, V domains shown)
VH: EVQLLESGGGVVQPGKSLRLSCVASGFTFGDYGMHWVRQAPGKGLEWVAVISDGGSTKYYADSVKGRFTIARDNSKNTLNLQMNSLRAEDTAVYYCAKDLAWIFGLGASYMDVWGQGTLVTVSS
VL: DIQLTQSPGTLSLSPGERATLSCRASQTVSSSYLAWYQQKPGQAPRLLIYDASSRATGIPDRFSGSGSGTDFTLTISRLEPEDFAVYYCQQYGSSPFGLTFGGGTKVEIK
notes: IgG
B13: ADI-15592 (antibody, V domains shown)
VH: EVQLVESGGALVKPGGSLRLSCVGTGLTFTTAYMSWARQAPGKGLEWVGRIKSKSDGGTTEYPTPVKGRFTISRDESKNTLYLQMNSLKIEDTAVYYCTTDRGITARPIFDSWGQGTLVTVSS
VL: QSVLTQPPSVSGALGRRVTISCTGSSSNIGAGYDVHWYRQLPGTAPKLLIYGNTKRPSGVPDRFSGSKYATSASLAITGLQAEDDADYYCQSYDGGLSGYVFGTGTQLTVL
notes: IgG; also called Antibody Number 159
B14: ADI-15596 (antibody, V domains shown)
VH: B13 VH with K52L, E61D
VL: B13 VL with E83D, Q107K, L108V
notes: IgG
B15: ADI-15594 (antibody, V domains shown)
VH: EVQLVESGGHLVQPGGSLRLSCAASGFTFSSYSMNWVRQAPGKGLEWISYISSSSSTMYYADSVKGRFTMSRDNAKNSLYLQMNSLRDEDTALYYCARDFPPINLAATTRNYYYYVMDVWGQGTTVTVSS
VL: DIQLTQSPSSLSASVGDRVTITCRASQSISSYLNWYQQKPGKAPNLLIYATSNLKSGVPSRFSGSGSGTDFTLTISSLQPEDFATYYCQQSYSTSYTFGQGTKVDIK
notes: IgG
B16: ADI-15586 (antibody, V domains shown)
VH: EVQLVESGGGVVQPGKSLRLSCAASGFIFSGYGMHWVRQAPGKGLEWVAFIWFDGSSTYYADSVKGRFTISKDDSKQTVYLQMNRLRAEDTAVYYCARDPLFLYNYNDEPFDYWGQGTLVTVSS
VL: SYELTQPPSASGSPGQSVTISCSGSSSNIGGNFVYWYQQLPGTAPKVLIYRNNQRPSGVPDRFSGSKSGTSASLAISGLRSDDEADYYCSVWDDSLNGRLFGGGTKLTVL
notes: IgG; also called Antibody Number 153
B17: ADI-15587 (antibody, V domains shown)
VH: EVQLVESGGGVVRPGGSLRLSCAASGFKFDDYGMSWVRQAPGKGLEWVSAIIWNSGSTGYADSVKGRFIISRDNAKNSLYLQMNSLRAEDTALYYCARVGGITKWWYYGMDLWGQGTTVTVSS
VL: ETTLTQSPSFLSASVGDRVTITCRASQGLSNYLAWYQQKPGRAPKLLIYAASTLQSGVPSRFRGSGSGTEFTLTISSLQPEDLATYYCQHLNSYPLTFGGGTKVEIK
notes: IgG
B18: ADI-15566 (antibody, V domains shown)
VH: QVQLVQSGAEVKKPGASVKVSCKASGFTFTNYGISWVRQAPGRGLEWMGWISAYNGNTEYAQKLQDRLTMTTDTSTNTAYMELRSLRSDDTALYYCARESGVAAAATLLYWGQGTLVTVSS
VL: ETTLTQSPLSLPVTLGQPASISCRSSQSLVYSDGNTYLSWFQQRPGQSPRRLIYKVSNRDSGVPDRFSGSGSGADFTLKISRVEAEDVGVYYCMQGIYWPRTFGQGTKVDIK
notes: IgG

biological target: T1, postfusion RSV F ectodomain (F ΔFP), subtype A (respiratory syncytial virus subtype A, UniProt P03420 26-109; P03420 147-524); assay: BLI, IgG on sensor
T1 construct: extracellular domain; also called Postfusion subtype A
Procedure: (§1) IgG binding to DS-Cav1 and FA FP was determined by BLI measurements using a FortéBio Octet HTX instrument (Pall Life Sciences). […] Data was analyzed using the ForteBio Data Analysis Software 7. The data was fit to a 1:1 binding model to calculate an association and dissociation rate, and KD was calculated using the ratio kd/kₐ.

| Binder | Kd |
| --- | --- |
| B1 | 3.09 nM |

biological target: T2, prefusion-stabilized RSV F ectodomain (DS-Cav1), subtype B (respiratory syncytial virus subtype B); assay: BLI, IgG on sensor
T2 construct: extracellular domain; also called Prefusion subtype B
Procedure: as §1

| Binder | Kd |
| --- | --- |
| B2 | 0.25 nM |
| B3 | 8.58 nM |
| B4 | 25.7 nM |
| B5 | 6.13 nM |
| B6 | 6.76 nM |
| B7 | 4.16 nM |
| B8 | 0.304 nM |
| B9 | 0.64 nM |
| B10 | 0.699 nM |
| B11 | 0.628 nM |
| B12 | 0.807 nM |
| B13 | 48.2 nM |
| B14 | 47.5 nM |
| B15 | 0.549 nM |
| B16 | 5.78 nM |
| B17 | 2.42 nM |
| B18 | 0.264 nM |

biological target: RSV F protein of subtype A strain A2, on virus (respiratory syncytial virus subtype A …, UniProt P03420 26-574); assay: cell-based or functional assay

| Binder | Neut IC50 (ug/ml) subtype A |
| --- | --- |
| B2 | 0.006 µg/mL |
| B3 | > 10 µg/mL |
| B4 | 0.541 µg/mL |
| B5 | > 10 µg/mL |
| B6 | 21.3 µg/mL |
| B7 | > 10 µg/mL |
| B8 | 0.086 µg/mL |
| B1 | 6.25 µg/mL |
| B9 | 0.011 µg/mL |
| B10 | 0.016 µg/mL |
| B11 | 0.022 µg/mL |
| B12 | 0.046 µg/mL |
| B13 | 12.3 µg/mL |
| B14 | 4.48 µg/mL |
| B15 | 3.25 µg/mL |
| B16 | > 10 µg/mL |
| B17 | > 10 µg/mL |
| B18 | 0.01 µg/mL |

biological target: RSV F protein of subtype B strain 18537, on virus (respiratory syncytial virus subtype B …, UniProt P13843 26-574); assay: cell-based or functional assay

| Binder | Neut IC50 (ug/ml) subtype B |
| --- | --- |
| B2 | 0.035 µg/mL |
| B3 | > 10 µg/mL |
| B4 | 0.43 µg/mL |
| B5 | 0.021 µg/mL |
| B6 | 6.25 µg/mL |
| B7 | 1.47 µg/mL |
| B8 | 0.219 µg/mL |
| B1 | > 10 µg/mL |
| B9 | 0.016 µg/mL |
| B10 | 0.033 µg/mL |
| B11 | > 10 µg/mL |
| B12 | 0.015 µg/mL |
| B13 | 20.9 µg/mL |
| B14 | > 10 µg/mL |
| B15 | 3.28 µg/mL |
| B16 | 1.02 µg/mL |
| B17 | 0.13 µg/mL |
| B18 | 0.043 µg/mL |
